Laboratory results: patent CN113939539A (BIOSION BIO TECH NANJING CO LTD, dated 2022)

Experiments:
[1] = target: T1, 猴CSF-1R-his蛋白 (内部制备, SEQ ID NO: 62) (monkey (cynomolgus), UniProt P07333 20-517 (human entry), limits assumed); assay: indirect ELISA on coated monkey CSF-1R-his
T1 construct: Made in-house, coated in the indirect ELISA; also called monkey CSF-1R-his (in-house)
T1 chain: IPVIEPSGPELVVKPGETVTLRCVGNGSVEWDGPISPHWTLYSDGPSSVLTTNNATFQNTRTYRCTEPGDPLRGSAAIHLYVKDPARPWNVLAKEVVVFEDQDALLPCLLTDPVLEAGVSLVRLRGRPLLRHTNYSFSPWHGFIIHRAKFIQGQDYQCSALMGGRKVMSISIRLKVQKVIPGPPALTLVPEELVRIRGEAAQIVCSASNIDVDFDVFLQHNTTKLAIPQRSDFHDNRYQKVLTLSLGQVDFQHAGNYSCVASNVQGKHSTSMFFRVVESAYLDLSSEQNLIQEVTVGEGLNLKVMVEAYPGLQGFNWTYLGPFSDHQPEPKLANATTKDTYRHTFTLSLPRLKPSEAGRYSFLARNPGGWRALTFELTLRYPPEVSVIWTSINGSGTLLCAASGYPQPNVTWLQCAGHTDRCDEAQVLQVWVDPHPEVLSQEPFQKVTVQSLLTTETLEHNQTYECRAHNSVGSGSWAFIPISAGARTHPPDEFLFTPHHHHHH

[2] = target: T2, 重组人CSF-1R-his蛋白 (Acro biosystems, Cat#CSR-H5228) (human, UniProt P07333 20-512); assay: BLI (Octet), antibody on AHC sensor, CSF-1R-his in solution
T2 construct: Bought protein; also called human CSF-1R-his; not shown: His tag
T2 sequence (P07333 20-512 limits assumed): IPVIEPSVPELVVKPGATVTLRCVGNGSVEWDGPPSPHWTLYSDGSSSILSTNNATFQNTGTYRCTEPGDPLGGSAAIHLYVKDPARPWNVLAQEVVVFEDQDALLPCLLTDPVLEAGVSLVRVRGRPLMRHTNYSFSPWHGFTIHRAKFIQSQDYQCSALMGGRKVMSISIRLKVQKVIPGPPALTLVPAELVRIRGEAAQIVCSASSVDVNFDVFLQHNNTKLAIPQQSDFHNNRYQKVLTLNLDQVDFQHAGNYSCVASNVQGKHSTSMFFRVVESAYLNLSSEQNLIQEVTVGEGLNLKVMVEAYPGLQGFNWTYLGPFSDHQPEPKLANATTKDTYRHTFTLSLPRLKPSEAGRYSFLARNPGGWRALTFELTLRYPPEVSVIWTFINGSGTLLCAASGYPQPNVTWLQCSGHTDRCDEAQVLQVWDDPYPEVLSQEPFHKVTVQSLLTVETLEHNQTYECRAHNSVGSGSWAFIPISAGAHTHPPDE

生物素标记的人CSF-1R-Fc蛋白 = target: T3, 生物素标记的人CSF-1R-Fc蛋白 (human, biotin-labelled (sites not given)); assay: capture ELISA: antibody captured by anti-human IgG, biotin-CSF-1R-Fc in solution
T3 construct: Made in-house; also called human CSF-1R-Fc
T3 sequence (chain, as listed by the source limits assumed): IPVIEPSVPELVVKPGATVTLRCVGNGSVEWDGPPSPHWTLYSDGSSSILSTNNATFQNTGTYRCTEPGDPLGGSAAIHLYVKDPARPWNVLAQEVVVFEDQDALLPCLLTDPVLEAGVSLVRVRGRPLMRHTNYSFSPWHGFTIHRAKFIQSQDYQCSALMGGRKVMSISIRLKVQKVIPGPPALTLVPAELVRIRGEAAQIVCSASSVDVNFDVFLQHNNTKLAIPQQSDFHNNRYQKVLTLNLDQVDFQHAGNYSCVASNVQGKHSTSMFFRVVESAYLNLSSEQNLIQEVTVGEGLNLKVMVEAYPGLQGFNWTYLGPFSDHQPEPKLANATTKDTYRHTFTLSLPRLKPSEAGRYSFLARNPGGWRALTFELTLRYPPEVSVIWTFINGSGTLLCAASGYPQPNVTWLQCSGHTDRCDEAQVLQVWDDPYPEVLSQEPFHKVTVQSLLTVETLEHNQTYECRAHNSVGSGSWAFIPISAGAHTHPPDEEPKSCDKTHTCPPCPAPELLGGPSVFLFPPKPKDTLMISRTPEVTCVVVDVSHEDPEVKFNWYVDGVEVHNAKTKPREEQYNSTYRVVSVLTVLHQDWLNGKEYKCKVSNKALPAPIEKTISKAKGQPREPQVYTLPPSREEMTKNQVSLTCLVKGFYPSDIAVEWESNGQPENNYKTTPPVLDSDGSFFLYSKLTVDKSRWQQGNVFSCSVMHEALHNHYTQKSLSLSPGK

binding result [1]: binds
binding result [2]: binds
binding result (生物素标记的人CSF-1R-Fc蛋白): binds
B1: 卡比利珠单抗 (antibody, human IgG4 S228P, kappa, V domains shown)
VH: QVQLVQSGAEVKKPGSSVKVSCKASGYTFTDNYMIWVRQAPGQGLEWMGDINPYNGGTTFNQKFKGRVTITADKSTSTAYMELSSLRSEDTAVYYCARESPYFSNLYVMDYWGQGTLVTVSS
VL: NIVLTQSPATLSLSPGERATLSCKASQSVDYDGDNYMNWYQQKPGQAPRLLIYAASNLESGIPARFSGSGSGTDFTLTISSLEPEDFAVYYCHLSNEDLSTFGGGTKVEIKR
notes: Made in-house; also called Cabiralizumab; 对照基准物
